Measured values published in article PMC3549248, “Charcot–Marie–Tooth type 2B disease-causing RAB7A mutant proteins show altered interaction with the neuronal intermediate filament peripherin” (Acta Neuropathologica, 2012).
Positions count from the first letter of the chain named. Names may count otherwise.

Key:
[1] = target: T1, pGADT7Rec-peripherin, P41219; assay: yeast two-hybrid β-galactosidase liquid assay; details: chain shown with the change; ONPG as substrate; parent: est. 80; read off a plot
T1 chain: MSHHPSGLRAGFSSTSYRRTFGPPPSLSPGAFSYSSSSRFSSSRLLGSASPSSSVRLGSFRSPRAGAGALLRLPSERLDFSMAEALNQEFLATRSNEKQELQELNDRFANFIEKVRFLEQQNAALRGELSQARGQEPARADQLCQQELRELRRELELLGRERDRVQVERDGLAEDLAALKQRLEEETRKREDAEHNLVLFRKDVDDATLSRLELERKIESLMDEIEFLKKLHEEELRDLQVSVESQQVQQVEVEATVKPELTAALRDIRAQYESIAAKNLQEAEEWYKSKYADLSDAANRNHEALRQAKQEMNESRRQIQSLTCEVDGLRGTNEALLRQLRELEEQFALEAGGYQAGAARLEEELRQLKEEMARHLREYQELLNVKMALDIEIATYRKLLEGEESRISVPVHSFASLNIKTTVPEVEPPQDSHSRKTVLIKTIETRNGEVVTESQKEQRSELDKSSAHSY

[2] = target: T2, HA-tagged RAB7A V162M (UniProt P18067 1-207, V162M); assay: co-IP; Neuro2A cells transfected with HA- or MYC-tagged RAB7A; RIPA lysate; anti-HA or anti-MYC resin 1 h at 4 °C; blot for endogenous peripherin; details: partners not purified
T2 construct: RAB7A with a CMT2B disease mutation; plasmid described previously; also called disease-causing mutant; source: Neuro2A or PC12 cells, transfected, in lysate

[3] = target: T3, HA-tagged RAB7A K157N (UniProt P18067 1-207, K157N); assay: as above; details: partners not purified
T3 construct: RAB7A with a CMT2B disease mutation; plasmid described previously; also called disease-causing mutant; source: Neuro2A or PC12 cells, transfected, in lysate

[4] = target: T4, HA-tagged RAB7A N161T (UniProt P18067 1-207, N161T); assay: as above; details: partners not purified
T4 construct: RAB7A with a CMT2B disease mutation; plasmid described previously; also called disease-causing mutant; source: Neuro2A or PC12 cells, transfected, in lysate

[5] = target: T5, HA-tagged RAB7A L129F (UniProt P18067 1-207, L129F); assay: as above; details: partners not purified
T5 construct: RAB7A with a CMT2B disease mutation; plasmid described previously; also called disease-causing mutant; source: Neuro2A or PC12 cells, transfected, in lysate

[6] = target: T6, His-tagged RAB7A Q67L (UniProt P18067 1-207, Q67L); assay: pull-down; 20 μg purified His-tagged RAB7A bound to NiNTA resin, incubated with Neuro2A cell extracts at 4 °C for 1 h; blot for peripherin; details: one partner purified
T6 construct: RAB7A constitutively active mutant, from E. coli; also called constitutively active RAB7A Q67L mutant

[7] = target: T7, His-tagged RAB7A K157N (UniProt P18067 1-207, K157N); assay: as above; details: one partner purified
T7 construct: RAB7A with a CMT2B disease mutation, from E. coli; The pull-down text says 'the CMT2B RAB7A mutants'; also called CMT2B RAB7A mutant K157 N

[8] = target: T8, His-tagged RAB7A V162M (UniProt P18067 1-207, V162M); assay: as above; details: one partner purified
T8 construct: RAB7A with a CMT2B disease mutation, from E. coli; The pull-down text says 'the CMT2B RAB7A mutants'; also called CMT2B RAB7A mutant V162 M

[9] = target: T9, His-tagged RAB7A L129F (UniProt P18067 1-207, L129F); assay: as above; details: one partner purified
T9 construct: RAB7A with a CMT2B disease mutation, from E. coli; The pull-down text says 'the CMT2B RAB7A mutants'; also called CMT2B RAB7A mutant L129F

[10] = target: T10, His-tagged RAB7A N161T (UniProt P18067 1-207, N161T); assay: as above; details: one partner purified
T10 construct: RAB7A with a CMT2B disease mutation, from E. coli; The pull-down text says 'the CMT2B RAB7A mutants'; also called CMT2B RAB7A mutant N161T

B1: pGBKT7-RAB7A wt, P18067 V162M (protein)
chain: MTSRKKVLLKVIILGDSGVGKTSLMNQYVNKKFSNQYKATIGADFLTKEVMVDDRLVTMQIWDTAGQERFQSLGVAFYRGADCCVLVFDVTAPNTFKTLDSWRDEFLIQASPRDPENFPFVVLGNKIDLENRQVATKRAQAWCYSKNNIPYFETSAKEAINMEQAFQTIARNALKQETEVELYNEFPEPIKLDKNDRAKTSAESCSC
response (relative units) [1]: 99

B2: pGBKT7-RAB7A wt, P18067 T22N (protein)
chain: B1 chain with T22N, M162V
response (relative units) [1]: 115

B3: pGBKT7-RAB7A wt, P18067 K157N (protein)
chain: B1 chain with K157N, M162V
response (relative units) [1]: 98

B4: pGBKT7-RAB7A wt, P18067 N161T (protein)
chain: B1 chain with N161T, M162V
response (relative units) [1]: 102

B5: peripherin (endogenous, Neuro2A cells) (natural protein, mouse (endogenous in Neuro2A), UniProt P15331 1-475, looked up)
chain: MPSSASMSHHHSSGLRSSISSTSYRRTFGPPPSLSPGAFSYSSSSRFSSSRLLGSGSPSSSARLGSFRAPRAGALRLPSERLDFSMAEALNQEFLATRSNEKQELQELNDRFANFIEKVRFLEQQNAALRGELSQARGQEPARADQLCQQELRELRRELELLGRERDRVQVERDGLAEDLAALKQRLEEETRKREDAEHNLVLFRKDVDDATLSRLELERKIESLMDEIEFLKKLHEEELRDLQVSVESQQVQQVEVEATVKPELTAALRDIRAQYENIAAKNLQEAEEWYKSKYADLSDAANRNHEALRQAKQEMNESRRQIQSLTCEVDGLRGTNEALLRQLRELEEQFALEAGGYQAGAARLEEELRQLKEEMARHLREYQELLNVKMALDIEIATYRKLLEGEESRISVPVHSFASLSLKTTVPEMEPLQDSHSKKMVLIRTIETRDGEKVVTESQKEQHSDLDKSSIHSY
notes: peripherin endogenous in mouse Neuro2A neuroblastoma cells, detected with anti-peripherin antibodies; main form of 58 kDa (Per-58); also called Per-58; source: endogenous, Neuro2A lysate
co-immunoprecipitated peripherin relative to RAB7A wt [2]: ~60 % more than RAB7A wt
co-immunoprecipitated peripherin relative to RAB7A wt [3]: ~60 % more than RAB7A wt
co-immunoprecipitated peripherin relative to RAB7A wt [4]: ~60 % more than RAB7A wt
co-immunoprecipitated peripherin relative to RAB7A wt [5]: ~60 % more than RAB7A wt
pulled-down peripherin relative to RAB7A wt [6]: 2 fold of RAB7A wt
pulled-down peripherin relative to RAB7A wt [7]: 2 fold of RAB7A wt
pulled-down peripherin relative to RAB7A wt [8]: 2 fold of RAB7A wt
pulled-down peripherin relative to RAB7A wt [9]: 2 fold of RAB7A wt
pulled-down peripherin relative to RAB7A wt [10]: 2 fold of RAB7A wt
